The labels stand for the following.
B1: Chromodomain-helicase-DNA-binding protein 3, residues 374 to 426; numbered along this chain, Q12873 (parent)
chain: YETDHQDYCEVCQQGGEIILCDTCPRAYHLVCLDPELDRAPEGKWSCPHCEKE

± gives the uncertainty stated by the source.

Variants of B1 are the subject of the data set. The data set can be described thus: abundance fitness (aPCA) (normalised: wild type 0, dead -1); higher = more abundant; growth selection in yeast, the domain comes from the species named. Particulars: Homo sapiens.
T23L: the abundance fitness was -0.22 ± 0.099.
With T23A, the abundance fitness is -0.337 ± 0.14.
On to T23D, for which the abundance fitness was -0.308 ± 0.2.
As to T23Q, the abundance fitness is -0.455 ± 0.27.
For the variant E10K, the abundance fitness is 0.169 ± 0.13.
Turning to C50N, the abundance fitness was -0.664 ± 0.38.
The result for C50K reads -0.923 ± 0.23; that for C50G, -0.383 ± 0.12; that for C50W, -0.565 ± 0.13.
The result for C50S reads -0.66 ± 0.14; that for D7S, -0.154 ± 0.11; that for D7Y, -0.522 ± 0.23.
With D7E, the abundance fitness was -0.263 ± 0.25.
The result for L20G reads 0.208 ± 0.099; that for L20W, -0.205 ± 0.16.
As to L20S, the abundance fitness came to 0.171 ± 0.095.
Take L20E: the abundance fitness was -0.003 ± 0.14.
In the case of C9A, the abundance fitness is -0.96 ± 0.18.
Take C9D: the abundance fitness was -0.743 ± 0.19.
Turning to R39W, the abundance fitness was -0.2 ± 0.19.
In the case of R39I, the abundance fitness was found to be 0.149 ± 0.17.
Regarding V11F, the abundance fitness was found to be 0.138 ± 0.095.
V11R: the abundance fitness stood at 0.12 ± 0.072.
As to C12G, the abundance fitness is -0.845 ± 0.11.
The result for C12R reads -0.954 ± 0.094; that for P25F, -0.021 ± 0.37; that for P25Q, -0.39 ± 0.23.
The result for H49V reads 0.126 ± 0.12; that for H49Y, -0.32 ± 0.23; that for G43R, -0.142 ± 0.088.
Consider G43E, for which the abundance fitness amounted to 0.22 ± 0.15.
The same measure for G43Q: -0.001 ± 0.24; for G43C: -0.369 ± 0.13.
The result for Q6R reads -0.139 ± 0.14; that for Q6F, -0.579 ± 0.18; that for Q6P, -0.353 ± 0.16.
The result for Q6H reads -0.014 ± 0.15; that for D4C, -0.066 ± 0.18; that for E51R, -0.215 ± 0.12.
E51P: the abundance fitness was -0.194 ± 0.15.
The same measure for D22V: -0.204 ± 0.12.
For D22H, the abundance fitness was -0.388 ± 0.28.
D22Y: the abundance fitness is -0.142 ± 0.22.
On to D22T, for which the abundance fitness was -0.222 ± 0.16.
Consider H5E, for which the abundance fitness was -0.137 ± 0.14.
Consider H5P, for which the abundance fitness is -0.071 ± 0.12.
In the case of H5N, the abundance fitness is 0.229 ± 0.14.
H5A: the abundance fitness was found to be 0.329 ± 0.1.
On to D38S, for which the abundance fitness is -0.09 ± 0.13.
The result for D38H reads 0.066 ± 0.43; that for D38A, -0.035 ± 0.15.
In the case of D38R, the abundance fitness is -0.352 ± 0.13.
Turning to D38T, the abundance fitness was -0.169 ± 0.21.
In the case of D38C, the abundance fitness is -0.259 ± 0.19.
As for L37T, the abundance fitness is -0.275 ± 0.14.
Consider L37I, for which the abundance fitness is -0.191 ± 0.24.
The result for L37G reads -0.108 ± 0.1; that for L37Q, -0.21 ± 0.16; that for L37E, -0.732 ± 0.28.
As to L33T, the abundance fitness is -0.208 ± 0.1.
The same measure for L33H: -0.146 ± 0.15; for L33M: -0.148 ± 0.13; for L33I: -0.214 ± 0.14.
Take L33A: the abundance fitness was -0.12 ± 0.12.
For the variant E17M, the abundance fitness is 0.152 ± 0.13.
For the variant E17N, the abundance fitness was 0.07 ± 0.17.
Regarding A40C, the abundance fitness is -0.33 ± 0.13.
The result for A40G reads -0.398 ± 0.1.
The result for A40W reads -0.346 ± 0.17.
Turning to A40Q, the abundance fitness is 0.126 ± 0.14.
Regarding C47V, the abundance fitness was -0.753 ± 0.12.
Take C47H: the abundance fitness is -1.07 ± 0.38.
Turning to C47T, the abundance fitness is -0.931 ± 0.2.
The result for C47M reads -0.657 ± 0.18.
Consider Q14C, for which the abundance fitness was -0.036 ± 0.13.
Turning to Q14Y, the abundance fitness was -0.501 ± 0.2.
For Q14H, the abundance fitness was -0.159 ± 0.15.
Q14F: the abundance fitness is -0.26 ± 0.12.
Regarding R26I, the abundance fitness is -0.445 ± 0.17.
The result for R26L reads 0.155 ± 0.1.
With R26S, the abundance fitness amounted to 0.087 ± 0.1.
For the variant R26E, the abundance fitness is -0.123 ± 0.13.
The same measure for R26H: -0.17 ± 0.18; for Y1S: -0.264 ± 0.34.
In the case of Y1E, the abundance fitness was found to be 0.154 ± 0.33.
As for Y1I, the abundance fitness came out at 0.557 ± 0.34.
The same measure for G15K: 0.112 ± 0.27; for K44V: -0.39 ± 0.13.
Consider K44E, for which the abundance fitness was -0.096 ± 0.13.
As to K44L, the abundance fitness is -0.011 ± 0.11.
Take E42Q: the abundance fitness is -0.088 ± 0.17.
For E42A, the abundance fitness is -0.171 ± 0.1.
For the variant E42M, the abundance fitness was -0.203 ± 0.17.
The result for E42K reads -0.181 ± 0.22; that for E42Y, -0.219 ± 0.16.
Turning to Q13W, the abundance fitness was -0.363 ± 0.12.
As for Q13S, the abundance fitness was -0.019 ± 0.084.
For the variant Q13D, the abundance fitness is -0.346 ± 0.12.
As to Q13A, the abundance fitness is -0.237 ± 0.1.
On to Q13K, for which the abundance fitness is -0.051 ± 0.1.
The same measure for I18V: -0.297 ± 0.11; for I18A: 0.024 ± 0.1; for I18E: 0.13 ± 0.14.
L30Q: the abundance fitness is -0.189 ± 0.14.
Turning to L30F, the abundance fitness is -0.038 ± 0.15.
On to P41M, for which the abundance fitness was -0.202 ± 0.15.
P41Y: the abundance fitness is -0.153 ± 0.19.
On to P41D, for which the abundance fitness was -0.368 ± 0.2.
On to P41Q, for which the abundance fitness is -0.073 ± 0.17.
The same measure for P41E: -0.092 ± 0.15; for Y8V: 0.053 ± 0.1; for Y8A: 0.207 ± 0.11.
The result for Y8P reads 0.302 ± 0.11; that for Y8N, 0.061 ± 0.16.
As to E2Y, the abundance fitness turned out to be 0.327 ± 0.12.
For E2P, the abundance fitness is -0.095 ± 0.11.
For the variant E2R, the abundance fitness is -0.086 ± 0.12.
Take P48D: the abundance fitness was -0.416 ± 0.18.
The result for P48F reads -0.528 ± 0.24; that for P48A, -0.002 ± 0.11.
The result for C24F reads -1.05 ± 0.23; that for C24M, -0.914 ± 0.24; that for C24K, -0.919 ± 0.21.
Turning to C24E, the abundance fitness is -1.16 ± 0.26.
Turning to C32T, the abundance fitness is -0.948 ± 0.12.
Regarding C32A, the abundance fitness is -1.09 ± 0.14.
The result for C32M reads -0.94 ± 0.18; that for C32P, -0.957 ± 0.11; that for C32F, -1.05 ± 0.11.
The result for E36R reads 0.018 ± 0.11.
For H29G, the abundance fitness is -0.844 ± 0.11.
For W45Y, the abundance fitness turned out to be 0.171 ± 0.15.
As to W45R, the abundance fitness was -0.204 ± 0.1.
Consider W45A, for which the abundance fitness was -0.037 ± 0.16.
As to E53M, the abundance fitness is -0.19 ± 0.28.
For the variant E53S, the abundance fitness was -0.48 ± 0.22.
As to T3W, the abundance fitness was 0.13 ± 0.13.
As to T3K, the abundance fitness worked out at 0.363 ± 0.12.
For the variant T3D, the abundance fitness is -0.163 ± 0.15.
With G16P, the abundance fitness is -0.423 ± 0.13.
Regarding G16Y, the abundance fitness was 0.033 ± 0.15.
Turning to G16I, the abundance fitness stood at 0.079 ± 0.17.
As for G16H, the abundance fitness was -0.057 ± 0.17.
Take G16R: the abundance fitness came to 0.197 ± 0.083.
With G16F, the abundance fitness was -0.156 ± 0.28.
On to Y28C, for which the abundance fitness was -0.189 ± 0.15.
As to Y28F, the abundance fitness was -0.145 ± 0.12.
With V31I, the abundance fitness was -0.245 ± 0.12.
For V31G, the abundance fitness was -0.094 ± 0.13.
V31T: the abundance fitness is -0.3 ± 0.11.
Take V31W: the abundance fitness was -0.26 ± 0.14.
Turning to S46G, the abundance fitness was -0.03 ± 0.087.
With S46L, the abundance fitness was -0.033 ± 0.1.
Take S46M: the abundance fitness is -0.186 ± 0.18.
The same measure for S46C: -0.308 ± 0.14; for S46T: -0.073 ± 0.14.
Regarding S46Y, the abundance fitness was 0.08 ± 0.15.
For S46Q, the abundance fitness stood at 0.127 ± 0.18.
Take S46V: the abundance fitness is -0.085 ± 0.1.
On to D34R, for which the abundance fitness was -0.197 ± 0.093.
The result for D34H reads -0.385 ± 0.14; that for I19D, -0.248 ± 0.14.
As to I19F, the abundance fitness is -0.277 ± 0.22.
For the variant I19K, the abundance fitness came out at 0.19 ± 0.13.
The same measure for P35Y: 0.015 ± 0.17; for P35C: -0.117 ± 0.17; for P35I: -0.3 ± 0.23.

Values taken from the Human Domainome abundance scans (Beltran et al. 2025).
